Experimental data: paper PMC12340910, “Structural basis for transport and inhibition of nucleotide sugar transport in pathogenic fungi” (Research Square, 2025)

What was measured:
[1] = target: T1, CaVrg4; C. albicans Vrg4; GDP-mannose transporter Vrg4 (Candida albicans, UniProt Q5A477); experiment: cryo-EM structure, […] Å; assay type: binding; conditions: complex with nanobody NB4, cytoplasmic-facing state; endogenous co-purified ligand; density suboptimal for precise ligand modelling
T1 construct: first 33 residues excluded; expressed in S. cerevisiae BJ5460 from pDDGFP-Leu2D; His-tagged GFP fusion cut by TEV; DDM/DM purified, reconstituted into liposomes; ~37 kDa
T1 sequence (Q5A477 34-371): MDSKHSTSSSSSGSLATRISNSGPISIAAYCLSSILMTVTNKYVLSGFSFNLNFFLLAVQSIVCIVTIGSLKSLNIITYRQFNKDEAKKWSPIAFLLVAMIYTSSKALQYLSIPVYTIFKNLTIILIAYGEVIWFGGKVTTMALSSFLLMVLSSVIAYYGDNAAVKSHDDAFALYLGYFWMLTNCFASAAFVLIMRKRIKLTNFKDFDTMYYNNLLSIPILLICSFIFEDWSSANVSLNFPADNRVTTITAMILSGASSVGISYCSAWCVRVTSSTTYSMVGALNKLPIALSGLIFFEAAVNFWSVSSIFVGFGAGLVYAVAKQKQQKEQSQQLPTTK

[2] = target: T2, Candida albicans Vrg4, Avi-tagged (C terminus), biotinylated (Candida albicans (UniProt Q5A477, …, UniProt Q5A477)); experiment: ELISA; dilution series of each nanobody captured by its Myc tag on MaxiSorp plates with protein A and anti-c-Myc antibody; 50 nM biotinylated CaVrg4 added for 40 minutes; streptavidin-peroxidase polymer, TMB, absorbance at 650 nm; KD from the 'one site - total binding' equation; conditions: both partners purified
T2 construct: also called biotinylated CaVrg4; purified CaVrg4; source: S. cerevisiae BJ5460, purified as the untagged version, biotinylated using BirA ligase; not shown: Avi tag, C-terminal, kept

Nc1nc2c(ncn2[C@@H]2O[C@H](COP(=O)(O)OP(=O)(O)O[C@H]3O[C@H](CO)[C@@H](O)[C@H](O)[C@@H]3O)[C@@H](O)[C@H]2O)c(=O)[nH]1 [GDP-mannose]
cryo-EM structure, 3.4 Å [1]: in the maps obtained for the NB4-bound structure, we observed density consistent with the endogenous ligand

B1: Nanobody NB3 (VHH)
VHH: QVQLVESGGGLVQPGGSLRLSCAASGSISEINVMGWYRQAPGKQRELVARITTGGSTNYADSVKGRFTISRDNAKNTVYLQMNSLKPEDTAVYMCNAHRRVVMEWGPLGYDYWGQGTQVTVSS
notes: source: subcloned into the pSBinit vector and purified; not shown: Myc, C-terminal, kept; His, C-terminal, kept
Kd [2]: ~3 nM

B2: Nanobody NB4 (VHH)
VHH: QVQLVESGGGLVQAGGSLRLSCAASGRTFRSYTLGWFRQAPGKEREFVAAIKWSTDTTYYADSVKGRFTISGDNAKNTVYLQMNSLKPEDTAVYFCAARSLSTVIAGPEIPWPYNSWGQGTQVTVSS
notes: as for B1
Kd [2]: ~10 nM
